In paper PMC10625600, “A TRIM21-based bioPROTAC highlights the therapeutic benefit of HuR degradation”:

Tests used:
HuR full-length [1] = target: T1, HuR full-length (UniProt Q15717 1-326); test: competition fluorescence polarisation; 8 nM HuR, 8 nM Msi1-FITC probe N1 displaced; FP: 10 mM HEPES pH 7.4, 150 mM NaCl, 3 mM EDTA, 0.05% Tween-20; competition 5 min at room temperature; SPR: Biacore 8K, streptavidin chip, buffer not given in the material; details: protein: recombinant; tags: Avi-tag, TEV-cleavable His-tag; single-stranded
T1 sequence (Q15717 whole entry): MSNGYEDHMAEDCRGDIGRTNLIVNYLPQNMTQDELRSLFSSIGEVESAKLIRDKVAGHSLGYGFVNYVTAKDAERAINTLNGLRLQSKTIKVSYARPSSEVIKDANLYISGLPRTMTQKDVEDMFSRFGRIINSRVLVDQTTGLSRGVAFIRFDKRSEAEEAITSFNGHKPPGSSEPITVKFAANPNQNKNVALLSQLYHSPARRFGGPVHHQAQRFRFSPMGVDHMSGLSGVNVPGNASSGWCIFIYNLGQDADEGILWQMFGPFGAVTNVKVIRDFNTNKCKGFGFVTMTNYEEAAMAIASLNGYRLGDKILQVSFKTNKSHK

HuR full-length [2] = target: T1, HuR full-length; test: fluorescence polarisation; 10 nM probe, 0-2000 nM HuR; FP: 10 mM HEPES pH 7.4, 150 mM NaCl, 3 mM EDTA, 0.05% Tween-20; competition 5 min at room temperature; SPR: Biacore 8K, streptavidin chip, buffer not given in the material; details: protein: recombinant; tags: Avi-tag, TEV-cleavable His-tag; label: 3' fluorescein (3FluorT; printed after the 3' G, may add a labelled T); single-stranded

Row | Binder | Ki (HuR full-length [1]) | Kd (HuR full-length [2])
1 | GCUUUUAUUUAUUUUG (ssRNA) [unlabelled Msi1 RNA] | 4 nM | –
2 | GCUUUUAUUUAUUUUG (ssRNA) [Msi1-FITC RNA probe] | – | 3.7 nM
